Read-outs that look alike come from different tables or passages of the source.
What was measured:
SAXS [1] = target: the molecule itself; assay: SAXS
SAXS [2] = target: the molecule itself; assay: SAXS; remark: listed apart in the source

B1: apo-bacterioferritin from E. coli (core-free, heme B bound) (natural protein)
chain: not shown
stoichiometry N (SAXS [1]): 2 | stoichiometry N (SAXS [2]): 24

Source: publication doi:10.1101/2020.06.16.154534 (bioRxiv, 2020)
